In article PMC12132311 (bioRxiv, 2025):
Values joined by “and” are separate entries in the source; they are usually repeats but may differ in a detail not shown here. Equal values may be shown once. No end group written: not given here. *: point of attachment. FITC = O=C1OC2(c3ccc(O)cc3Oc3cc(O)ccc32)c2ccc(NC(=S)*)cc21; 5FAM = O=C1OC2(c3ccc(O)cc3Oc3cc(O)ccc32)c2ccc(C(=O)*)cc21; Ahx = NCCCCCC(=O)O

T1: CHIP-optimized peptide CHIPopt (FITC-Ahx-LWWPD)
T1 peptide: {FITC-Ahx}-LWWPD

T2: FAM-labeled Hsp70 C-terminal peptide (5FAM-Ahx-SSGPTIEEVD)
T2 peptide: {5FAM-Ahx}-SSGPTIEEVD

T3: Carboxyl terminus of Hsc70-interacting protein (CHIP/STUB1), human, WT, full length (human), Q9UNE7
T3 chain: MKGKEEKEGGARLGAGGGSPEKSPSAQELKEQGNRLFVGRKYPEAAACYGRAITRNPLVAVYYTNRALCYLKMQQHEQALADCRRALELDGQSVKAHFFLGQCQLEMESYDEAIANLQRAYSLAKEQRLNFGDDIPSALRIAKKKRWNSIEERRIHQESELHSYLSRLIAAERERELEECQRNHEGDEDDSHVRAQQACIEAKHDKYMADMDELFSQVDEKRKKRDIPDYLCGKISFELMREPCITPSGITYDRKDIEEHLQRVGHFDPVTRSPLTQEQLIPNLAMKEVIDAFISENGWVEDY

B1: Fab 2D2 (CHIP-targeting fragment antigen-binding antibody) (Fab, V domains shown)
VH: QVQLQQSGPGLMKGGQTLSLTCAISGDSVSSNSAAWNWIRQSPSRGLEWLGRTYYRSKWYNEYAVSVKSRITINPDTSKNQFSLQLNSVTPEDTAVYYCARAVAASFDYWGQGTLVTVSS
VL: ETTLTQSPGTLSLSPGERATLSCRASQSVSSTFLAWYQQKPGQAPRLLIYGASRRATGIPDRFSGSGSGTDFTLTISRLEPEDFAVYYCQRYGATYTFGQGTKLEIK
B2: Carboxyl terminus of Hsc70-interacting protein (CHIP/STUB1), human, WT, full length (enzyme)
chain: MKGKEEKEGGARLGAGGGSPEKSPSAQELKEQGNRLFVGRKYPEAAACYGRAITRNPLVAVYYTNRALCYLKMQQHEQALADCRRALELDGQSVKAHFFLGQCQLEMESYDEAIANLQRAYSLAKEQRLNFGDDIPSALRIAKKKRWNSIEERRIHQESELHSYLSRLIAAERERELEECQRNHEGDEDDSHVRAQQACIEAKHDKYMADMDELFSQVDEKRKKRDIPDYLCGKISFELMREPCITPSGITYDRKDIEEHLQRVGHFDPVTRSPLTQEQLIPNLAMKEVIDAFISENGWVEDY
B3: Fab H1 (CHIP-targeting fragment antigen-binding antibody) (Fab, V domains shown)
VH: VQLVQSGSEVKKPGASVKVSCKASGYTFTNYGISWVRQAPGQGLEWMGWISAYNGNTNYAQNFQGRVTMTTDTSTKTAYMELRSLRSDDTAVYFCARSGYSGYDNNLGAFDIWGQGTMVTVSS
VL: SVVTQPPSVSAAPGQKVTISCSGTSSNIGNSYVTWYQQLPGAAPKLLIYDNNKRPSGIPDRFSGSKSGTSATLGITGLQTGDEADYYCATWDSSLTAGRVFGGGTRLTVL

Columns and labels:
[1] = target: Carboxyl terminus of Hsc70-interacting protein (CHIP/STUB1), human, WT, full length (human, UniProt Q9UNE7); experiment: cryo-EM structure
Biotinylated CHIP = Biotinylated CHIP (Homo sapiens, UniProt Q9UNE7, biotin (site and way of biotinylation not stated)); experiment: BLI
[2] = target: T1, CHIP-optimized peptide CHIPopt …; experiment: fluorescence polarisation
[3] = target: T2, FAM-labeled Hsp70 C-terminal peptide …; experiment: fluorescence polarisation
[4] = target: T1, CHIP-optimized peptide CHIPopt …; experiment: fluorescence polarisation
[5] = target: T2, FAM-labeled Hsp70 C-terminal peptide …; experiment: fluorescence polarisation
[6] = target: T3, Carboxyl terminus of Hsc70-interacting …; experiment: cryo-EM structure; details: remark: other sources report otherwise

Row | Binder | stoichiometry N [1] | Kd (Biotinylated CHIP) [nM] | apparent Kd with Fab H1 present [2] [nM] | apparent Kd with Fab H1 present [3] [nM] | apparent Kd with Fab 2D2 present [4] [nM] | apparent Kd with Fab 2D2 present [5] [nM] | stoichiometry N [6]
1 | B1 | 1 Fab per CHIP dimer (printed as 2:1 CHIP:Fab) | 40 | – | – | – | – | –
2 | B2 | – | – | 0.01 | 140 | 0.016 | 260 | 2
3 | B3 | 1 Fab per CHIP dimer (printed as 2:1 CHIP:Fab) and 2 Fab per CHIP dimer (printed as 2:2 CHIP:Fab) | 1100 | – | – | – | – | –
